Measurements as given in the RNAGym collection of RNA variant scans (doi:10.7554/elife.90254).

B1: LINE1-full (parent)
chain: UACGUAGGUGGUUUUCCCCUGAUAGUGCUAAGGGGGCCUGGAAGUUUGGACUGGGCAGAGCUCAACACAGCGUGGCAAAGUGGCUGUGGCUAGACUGCCUCUCUGGAUUCCUCGUCACUCAGCAGGGCAUCUCUGAGAGAAAUGCC

Variants of: B1
Experiment: self-cleavage, relative activity (ratio to wild type); higher = more cleavage; in vitro, sequencing; the parent is a self-cleaving ribozyme

Going from A24U G122U to G25A A117U, the self-cleavage falls from 1.33 to 1.25.

Going from A22U G55A to A22U A138G, the self-cleavage rises from 0.37 to 1.09.

First: A22U A138C
Second: A24G U134A
The self-cleavage of the first is lower: 0.92 for the first, 0.99 for the second.

Compared with A24G U134C, A24G A138U is higher in self-cleavage: 1.26 for the first, 1.43 for the second.

First: A22U A50U
Second: U23C G93U
The self-cleavage of the first is higher: 0.39 for the first, 0.04 for the second.

Going from A24G U96C to A24G U96G, the self-cleavage falls from 0.31 to 0.

Going from A24G U96A to A24G A59U, the self-cleavage rises from 0.11 to 1.17.

First: U23C A138G
Second: G25C U119C
The self-cleavage of the first is higher: 1.95 for the first, 1.58 for the second.

Going from G25A U143A to A22U G75A, the self-cleavage falls from 1.12 to 1.

First: A22U U100C
Second: A22G U108A
The self-cleavage of the first is lower: 1.54 for the first, 1.74 for the second.

Going from A22U A42G to U23C C63U, the self-cleavage falls from 1.54 to 0.35.

First: A22U U46A
Second: G25A A136G
The self-cleavage of the first is lower: 1.2 for the first, 1.58 for the second.

First: U23A U104C
Second: A22U C103U
The self-cleavage of the first is lower: 0.84 for the first, 1.42 for the second.

Going from A24U G93A to A24U A121G, the self-cleavage rises from 0.06 to 1.08.

Going from G25A U130C to A22U C38U, the self-cleavage rises from 0.8 to 1.18.

Compared with A22U U39C, A22G U134C is lower in self-cleavage: 1.2 for the first, 0.96 for the second.

First: A22G U134A
Second: A22U U87A
The self-cleavage of the first is higher: 1.03 for the first, 0.1 for the second.

Compared with G25U U119A, A24G A117U is lower in self-cleavage: 1.69 for the first, 1.09 for the second.

First: A24G G53A
Second: U23A A117G
The self-cleavage of the first is lower: 1.8 for the first, 2.16 for the second.

Going from A22U G126A to A24U U29A, the self-cleavage falls from 1.5 to 1.12.

Going from G25C U91C to A24C A124G, the self-cleavage rises from 0.97 to 0.98.

First: U23A A64G
Second: U23A A64U
The self-cleavage of the first is lower: 0.23 for the first, 0.34 for the second.

Going from U23C A117U to U23C A117G, the self-cleavage falls from 1.75 to 1.27.

Compared with U23C A121U, U23C A121G is higher in self-cleavage: 0.66 for the first, 2 for the second.

First: U23G G122U
Second: A24G A43U
The self-cleavage of the first is lower: 1.17 for the first, 1.54 for the second.

Compared with A24G A43G, G25A A124G is lower in self-cleavage: 1.12 for the first, 0.63 for the second.

Compared with A22U A69U, G25U U104A is higher in self-cleavage: 0.12 for the first, 0.77 for the second.

Going from U23A U47C to A22U A31G, the self-cleavage falls from 1.88 to 1.04.

Going from U23A A142G to A22G U100C, the self-cleavage rises from 1.12 to 1.75.

First: A22G U100A
Second: U23C G27A
The self-cleavage of the first is lower: 0.98 for the first, 1.8 for the second.

First: U23C C113A
Second: A24G G35U
The self-cleavage of the first is lower: 0.4 for the first, 1.15 for the second.

Compared with A22U U85A, G25A U39A is higher in self-cleavage: 0.08 for the first, 1.15 for the second.

Compared with U23A U26C, A24U U119G is higher in self-cleavage: 0.99 for the first, 2.22 for the second.

Going from U23A A129G to G25A A94G, the self-cleavage falls from 2.15 to 0.21.

First: G25A U104A
Second: A24U G106A
The self-cleavage of the first is lower: 1.03 for the first, 1.51 for the second.

Compared with U23C C131U, A24G U29C is lower in self-cleavage: 1.84 for the first, 1.41 for the second.

First: G25U U39C
Second: A22U A141G
The self-cleavage of the first is lower: 0.47 for the first, 1.29 for the second.

First: A24U A138G
Second: U23C C133A
The self-cleavage of the first is lower: 0.94 for the first, 1.09 for the second.

Compared with A24G G33A, A24G A77U is higher in self-cleavage: 0.35 for the first, 1.04 for the second.

First: A24G A107U
Second: U23C G48A
The self-cleavage of the first is lower: 1.05 for the first, 1.44 for the second.

First: A24U U102C
Second: A22G U104A
The self-cleavage of the first is lower: 1.09 for the first, 1.38 for the second.

First: A22G U104C
Second: U23C G144A
The self-cleavage of the first is lower: 1.26 for the first, 1.28 for the second.

First: U23C A69U
Second: A24G C98A
The self-cleavage of the first is lower: 0.02 for the first, 0.13 for the second.

First: G25A G35A
Second: A22U A117G
The self-cleavage of the first is higher: 0.91 for the first, 0.65 for the second.

Going from A24G A50G to A24G G144A, the self-cleavage rises from 1.16 to 1.35.

Going from A24G U132A to A24G U132C, the self-cleavage rises from 1.12 to 1.17.

First: U23A A92G
Second: U23G A140G
The self-cleavage of the first is lower: 0.12 for the first, 1.27 for the second.

Compared with A22U A65G, A24G U39G is higher in self-cleavage: 0.14 for the first, 0.76 for the second.

Going from A24G U39C to A24U G137U, the self-cleavage rises from 1.11 to 2.12.

First: U23A A50G
Second: U23A G144A
The self-cleavage of the first is lower: 1.25 for the first, 1.85 for the second.

Compared with A22U U104A, A22U U104C is higher in self-cleavage: 1.01 for the first, 1.31 for the second.

First: A24G U46A
Second: A24G C51U
The self-cleavage of the first is lower: 0.9 for the first, 1.68 for the second.

Compared with U23C U62C, A24U A79G is higher in self-cleavage: 0.04 for the first, 0.97 for the second.

Compared with G25A A64G, G25A A64U is higher in self-cleavage: 0.27 for the first, 0.4 for the second.

First: G25A U108C
Second: A22U A24G
The self-cleavage of the first is lower: 1.24 for the first, 1.95 for the second.

First: G25A A43G
Second: A24C U73A
The self-cleavage of the first is higher: 1.27 for the first, 0.46 for the second.

Compared with U23A U81A, A24G C37U is lower in self-cleavage: 1.7 for the first, 0.83 for the second.

Compared with A24G C37A, U23C A65C is lower in self-cleavage: 1.07 for the first, 0 for the second.

First: A22U
Second: A22G U62C
The self-cleavage of the first is higher: 1.11 for the first, 0.09 for the second.

Compared with U23A A77U, U23C U85C is lower in self-cleavage: 1.24 for the first, 0.22 for the second.

Compared with U23C U85A, A22U G34A is higher in self-cleavage: 0.07 for the first, 0.82 for the second.

Compared with A22G U109C, U23A A65U is lower in self-cleavage: 1.36 for the first, 0.53 for the second.

Going from A22U A30G to A22G U52C, the self-cleavage falls from 1.98 to 1.56.

Compared with A22G U52G, A24G A140U is lower in self-cleavage: 0.92 for the first, 0.9 for the second.

First: A24G A140G
Second: A24U U47C
The self-cleavage of the first is higher: 1.68 for the first, 1.57 for the second.

Compared with U23A A124G, U23C U47C is higher in self-cleavage: 0.94 for the first, 1.32 for the second.

Going from A22U A79G to G25C U85C, the self-cleavage falls from 0.96 to 0.2.

First: A24G C111A
Second: U23G U109A
The self-cleavage of the first is higher: 1.74 for the first, 1 for the second.

First: A24G A141G
Second: A22U U62A
The self-cleavage of the first is higher: 1.22 for the first, 0 for the second.

Going from U23C C118U to U23C A67U, the self-cleavage falls from 1.81 to 0.18.

Going from A24G U47A to A22U A77U, the self-cleavage falls from 1.44 to 0.62.

First: A22U A77G
Second: U23C A79U
The self-cleavage of the first is higher: 2.23 for the first, 2.06 for the second.

Going from U23C A79G to A24C A142C, the self-cleavage falls from 1.4 to 1.13.

First: G25A U109A
Second: G25A C99G
The self-cleavage of the first is higher: 1.72 for the first, 0.06 for the second.

First: A24U U132C
Second: A24U U132A
The self-cleavage of the first is lower: 1.07 for the first, 1.59 for the second.

Compared with A24G U109A, G25A A78G is lower in self-cleavage: 2.43 for the first, 1.2 for the second.

Compared with A22U U96A, A22U U96G is higher in self-cleavage: 0.09 for the first, 0.53 for the second.

Going from A24U U143A to A24U A67G, the self-cleavage falls from 1.13 to 0.43.

First: U23C A24C
Second: U23A A136U
The self-cleavage of the first is lower: 1.09 for the first, 1.7 for the second.

Compared with U23A A136G, G25A A107G is lower in self-cleavage: 1.31 for the first, 0.88 for the second.

First: A24G A129G
Second: A24G A129C
The self-cleavage of the first is higher: 1.19 for the first, 0.71 for the second.

Going from A22U G25A to A24C U134G, the self-cleavage rises from 0.7 to 1.02.

First: A22U G106U
Second: A24G A31U
The self-cleavage of the first is higher: 1.72 for the first, 1.37 for the second.

Work on G25A A142U yielded a self-cleavage of 0.93.
